Laboratory results reported in paper PMC9047069, “Multifaceted Activities of Seven Nanobodies against Complement C4b” (The Journal of Immunology Author Choice, 2022).

Legend:
[1] = molecular target: T1, human complement C4b (human, UniProt P0C0L4, biotin (EZ link Maleimide-PEG2-Biotin) coupled to its thiol group, only where C4b was held on the SPR chip); experiment: SPR; biotinylated nanobodies (100 nM) spotted on a streptavidin chip; kinetic titration with C4b as analyte, five-step twofold dilution without regeneration, last dissociation 1 h; 20 mM HEPES pH 7.4, 150 mM NaCl, 3 mM MgCl2; NbE11 and NbH11 fitted with mass transport; duplicate; settings: both partners purified
T1 construct: beta chain (75 kDa) of human complement C4; alpha' chain (87 kDa) of human C4b, the alpha chain of C4 after removal of C4a; gamma chain (33 kDa) of human complement C4; One molecule for unlabelled C4b (SEC, cryo-EM, analyte in SPR), C4b biotinylated at the thiol (ligand in SPR) and C4b deposited on erythrocytes from serum; The CTC domain is not in the deposited models; source: bought: Complement …

[2] = molecular target: T1, human complement C4b; experiment: SPR; biotinylated C4b (50 nM) spotted on a planar streptavidin chip through its thiol group; nanobodies injected in a 14-step twofold dilution series; IBIS-MX96; 20 mM HEPES pH 7.4, 150 mM NaCl, 3 mM MgCl2; simple bimolecular model, NbE3 with mass transport; duplicate; settings: both partners purified

T1 sequence (P0C0L4 20-675, chain 1 of 3): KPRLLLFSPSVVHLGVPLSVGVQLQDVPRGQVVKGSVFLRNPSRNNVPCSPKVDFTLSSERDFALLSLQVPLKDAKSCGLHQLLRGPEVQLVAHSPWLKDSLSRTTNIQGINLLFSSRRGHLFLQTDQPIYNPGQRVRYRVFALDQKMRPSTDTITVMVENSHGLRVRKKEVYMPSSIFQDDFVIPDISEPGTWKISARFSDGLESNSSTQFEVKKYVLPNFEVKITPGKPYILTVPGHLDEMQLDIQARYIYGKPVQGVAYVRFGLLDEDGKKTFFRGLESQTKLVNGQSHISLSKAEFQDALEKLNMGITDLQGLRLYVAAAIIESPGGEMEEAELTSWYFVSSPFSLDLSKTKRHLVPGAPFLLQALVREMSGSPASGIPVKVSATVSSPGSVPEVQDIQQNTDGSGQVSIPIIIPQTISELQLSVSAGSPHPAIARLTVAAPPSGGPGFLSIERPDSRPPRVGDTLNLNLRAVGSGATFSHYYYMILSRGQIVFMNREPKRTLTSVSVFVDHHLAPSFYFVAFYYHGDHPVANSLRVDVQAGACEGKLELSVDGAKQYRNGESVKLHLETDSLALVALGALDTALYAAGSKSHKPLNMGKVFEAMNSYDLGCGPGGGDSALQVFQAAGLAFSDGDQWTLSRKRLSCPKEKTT
T1 sequence (P0C0L4 757-1446, chain 2 of 3): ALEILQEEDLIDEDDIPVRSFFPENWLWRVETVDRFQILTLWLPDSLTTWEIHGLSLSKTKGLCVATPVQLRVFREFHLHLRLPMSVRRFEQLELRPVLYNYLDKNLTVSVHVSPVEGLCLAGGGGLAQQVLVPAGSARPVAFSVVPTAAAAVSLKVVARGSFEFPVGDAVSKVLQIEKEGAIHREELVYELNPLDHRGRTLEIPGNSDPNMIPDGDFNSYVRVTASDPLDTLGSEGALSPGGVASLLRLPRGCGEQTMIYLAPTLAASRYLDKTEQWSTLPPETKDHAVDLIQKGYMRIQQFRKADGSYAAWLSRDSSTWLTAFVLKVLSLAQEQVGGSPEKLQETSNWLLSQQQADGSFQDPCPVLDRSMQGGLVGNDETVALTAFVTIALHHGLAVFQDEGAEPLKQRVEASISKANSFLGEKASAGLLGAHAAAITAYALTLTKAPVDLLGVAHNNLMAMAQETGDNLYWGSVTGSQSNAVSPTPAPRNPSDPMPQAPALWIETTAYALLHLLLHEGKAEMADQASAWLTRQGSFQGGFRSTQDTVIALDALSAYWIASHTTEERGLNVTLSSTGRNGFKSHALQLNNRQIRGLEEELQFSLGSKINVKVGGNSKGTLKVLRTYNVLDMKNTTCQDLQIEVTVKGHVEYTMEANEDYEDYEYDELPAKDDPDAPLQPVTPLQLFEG
T1 sequence (P0C0L4 1454-1744, chain 3 of 3): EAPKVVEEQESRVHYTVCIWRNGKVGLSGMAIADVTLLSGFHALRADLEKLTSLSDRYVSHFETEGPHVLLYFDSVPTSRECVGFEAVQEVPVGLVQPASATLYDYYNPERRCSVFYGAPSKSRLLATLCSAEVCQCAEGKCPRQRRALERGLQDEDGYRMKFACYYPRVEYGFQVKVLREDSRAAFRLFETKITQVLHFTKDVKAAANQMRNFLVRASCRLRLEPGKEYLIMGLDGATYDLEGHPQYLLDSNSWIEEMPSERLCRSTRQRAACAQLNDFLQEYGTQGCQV

Row | Kd [1] [nM] | koff [1] [s⁻¹] | Kd [2] [nM] | koff [2] [s⁻¹] | Binder
1 | 0.067 ± 0.006 | 1.3e-05 | – | – | NbB5 (VHH, Vector: modified pHEN6 with thrombin cleavage site and 6xHis, N-terminal pelB leader for periplasmic secretion; no cleavage of the tag is told; source: E. coli BL21 Codon Plus (DE3)-RIL, periplasm, purified (Ni-NTA, SEC)) VHH: EVQLVESGGGLVQPGGSLRLSCAASGFTFSSYHMSWVRQAPGKGLEWISVINDSGDLTRYADSVKGRFTISRDNAKNTLYLQMNSLQPEDTAVYSCLKSSDFYSYSNADSRGQGTQVTVSS
2 | 0.014 ± 0.004 | 3.8e-06 | – | – | NbB12 (VHH, Vector: modified pHEN6 with thrombin cleavage site and 6xHis, N-terminal pelB leader; no cleavage of the tag is told; also called NbB12-AF488; source: E. coli BL21 Codon Plus (DE3)-RIL, periplasm, purified (Ni-NTA, SEC)) VHH: EVQLVESGGGLVQAGGSLRLSCVASERTYMAWFRQAPGKEREFVAAITSSGMMTEYAPSVKGRFTISRDNAKNTVYLQMNSLKPEDTAVYYCAADLRQRFGERVTEYDYWGQGTQVTVSS
3 | – | – | 0.318 ± 0.01 | 0.0066 | NbE3 (VHH, Vector: modified pHEN6 with thrombin cleavage site and 6xHis, N-terminal pelB leader; no cleavage of the tag is told; also called NbBE3; source: E. coli BL21 Codon Plus (DE3)-RIL, periplasm, purified (Ni-NTA, SEC)) VHH: EVQLVESGGGLVQAGGSLRLSCAASGSDFSANAVGWYRQAPGKQRVVVASISSTGNTKYSNSVKGRFTISRDNAKNTVYLQMNSLKPEDTAVYYCWLFRFGIENYWGQGTQVTVSS
